# Laboratory results reported in US20180071366A1.
# Numbered stars: 1 amine (or outer) side, 2 acyl side, 3 side chain; on linkers, the order of the positions; unused ones are H or OH. Bridge positions count the residues as written; N and C are the ends. Square brackets hold non-standard residues; d marks the D form. * marks the point of attachment. C20 diacid = O=C(O)CCCCCCCCCCCCCCCCCCC(=O)*; γGlu = O=C(O)[C@H](CCC(=O)[*:2])N[*:1]; Hyp = O=C(O)[C@@H]1C[C@@H](O)CN1; NMeI = CC[C@H](C)[C@H](NC)C(=O)O; Aad = N[C@@H](CCCC(=O)O)C(=O)O; Orn = NCCC[C@H](N)C(=O)O; Dab = NCC[C@H](N)C(=O)O; Dap = NC[C@H](N)C(=O)O; Sar = CNCC(=O)O
# Experiments:
# [1] = biological target: recombinant human amylin 3 receptor (hAMYR3) (human), P30988; test: cell-based or functional assay
# [2] = biological target: recombinant human calcitonin receptor (hCT-R) (human), P30988; test: cell-based or functional assay
# Chain of recombinant human calcitonin receptor (hCT-R) (human), P30988 (P30988 25-474): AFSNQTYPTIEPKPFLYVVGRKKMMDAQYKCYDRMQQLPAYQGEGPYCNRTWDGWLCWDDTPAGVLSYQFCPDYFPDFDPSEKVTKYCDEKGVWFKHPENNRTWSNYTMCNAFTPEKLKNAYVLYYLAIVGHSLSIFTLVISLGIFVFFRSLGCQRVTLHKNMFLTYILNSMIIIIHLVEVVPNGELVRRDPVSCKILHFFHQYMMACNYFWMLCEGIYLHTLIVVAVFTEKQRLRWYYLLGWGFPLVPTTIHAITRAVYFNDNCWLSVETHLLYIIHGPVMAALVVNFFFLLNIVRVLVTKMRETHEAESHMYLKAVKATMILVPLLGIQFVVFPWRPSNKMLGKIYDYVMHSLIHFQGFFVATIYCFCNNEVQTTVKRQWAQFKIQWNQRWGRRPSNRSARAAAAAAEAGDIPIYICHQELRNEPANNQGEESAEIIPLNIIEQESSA
# Chain of recombinant human amylin 3 receptor (hAMYR3) (human), P30988 (P30988 25-474, chain 1 of 2): as the sequence (P30988 25-474) above
# Chain of recombinant human amylin 3 receptor (hAMYR3) (human), P30988 (O60896 24-148, chain 2 of 2, further chain): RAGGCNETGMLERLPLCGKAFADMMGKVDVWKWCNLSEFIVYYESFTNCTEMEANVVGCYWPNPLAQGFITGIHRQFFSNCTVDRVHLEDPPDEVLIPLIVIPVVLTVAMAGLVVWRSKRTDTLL
"hAMYR3 EC50 [nM] (cAMP formation, 1321N1 cells expressing hAMYR3) [1]","hCT-R EC50 [nM] (cAMP formation, 1321N1 cells expressing hCT-R) [2]",Binder
0.003 nM,0.019 nM,{C20 diacid-γGlu}-RCGTATCATERLAHFLQRSSF[Sar]A[NMeI]LSSTEVGSNT[Hyp]-NH2 (disulfide 2-7; SMILES CC[C@H](C)[C@@H](C(=O)N[C@@H](CC(C)C)C(=O)N[C@@H](CO)C(=O)N[C@@H](CO)C(=O)N[C@H](C(=O)N[C@@H](CCC(=O)O)C(=O)N[C@H](C(=O)NCC(=O)N[C@@H](CO)C(=O)N[C@@H](CC(N)=O)C(=O)N[C@H](C(=O)N1C[C@H](O)C[C@H]1C(N)=O)[C@@H](C)O)C(C)C)[C@@H](C)O)N(C)C(=O)[C@H](C)NC(=O)CN(C)C(=O)[C@H](Cc1ccccc1)NC(=O)[C@H](CO)NC(=O)[C@H](CO)NC(=O)[C@H](CCCNC(=N)N)NC(=O)[C@H](CCC(N)=O)NC(=O)[C@H](CC(C)C)NC(=O)[C@H](Cc1ccccc1)NC(=O)[C@H](Cc1c[nH]cn1)NC(=O)[C@H](C)NC(=O)[C@H](CC(C)C)NC(=O)[C@H](CCCNC(=N)N)NC(=O)[C@H](CCC(=O)O)NC(=O)[C@@H](NC(=O)[C@H](C)NC(=O)[C@@H]1CSSC[C@H](NC(=O)[C@H](CCCNC(=N)N)NC(=O)CC[C@H](NC(=O)CCCCCCCCCCCCCCCCCCC(=O)O)C(=O)O)C(=O)NCC(=O)N[C@@H]([C@@H](C)O)C(=O)N[C@@H](C)C(=O)N[C@@H]([C@@H](C)O)C(=O)N1)[C@@H](C)O) [Ref. 2]
9.3 nM,13.6 nM,{C20 diacid-γGlu}-RDGTAT[Dap]ATERLAHFLQRSSF[Sar]A[NMeI]LSSTEVGSNT[Hyp]-NH2 (lactam 2-7; SMILES CC[C@H](C)[C@@H](C(=O)N[C@@H](CC(C)C)C(=O)N[C@@H](CO)C(=O)N[C@@H](CO)C(=O)N[C@H](C(=O)N[C@@H](CCC(=O)O)C(=O)N[C@H](C(=O)NCC(=O)N[C@@H](CO)C(=O)N[C@@H](CC(N)=O)C(=O)N[C@H](C(=O)N1C[C@H](O)C[C@H]1C(N)=O)[C@@H](C)O)C(C)C)[C@@H](C)O)N(C)C(=O)[C@H](C)NC(=O)CN(C)C(=O)[C@H](Cc1ccccc1)NC(=O)[C@H](CO)NC(=O)[C@H](CO)NC(=O)[C@H](CCCNC(=N)N)NC(=O)[C@H](CCC(N)=O)NC(=O)[C@H](CC(C)C)NC(=O)[C@H](Cc1ccccc1)NC(=O)[C@H](Cc1c[nH]cn1)NC(=O)[C@H](C)NC(=O)[C@H](CC(C)C)NC(=O)[C@H](CCCNC(=N)N)NC(=O)[C@H](CCC(=O)O)NC(=O)[C@@H](NC(=O)[C@H](C)NC(=O)[C@@H]1CNC(=O)C[C@H](NC(=O)[C@H](CCCNC(=N)N)NC(=O)CC[C@H](NC(=O)CCCCCCCCCCCCCCCCCCC(=O)O)C(=O)O)C(=O)NCC(=O)N[C@@H]([C@@H](C)O)C(=O)N[C@@H](C)C(=O)N[C@@H]([C@@H](C)O)C(=O)N1)[C@@H](C)O) [Compound 1]
13.2 nM,18.2 nM,{C20 diacid-γGlu}-RDGTAT[Orn]ATERLA[Aad]FLQRSSF[Sar]A[NMeI]LSSTEVGSNT[Hyp]-NH2 (SMILES CC[C@H](C)[C@@H](C(=O)N[C@@H](CC(C)C)C(=O)N[C@@H](CO)C(=O)N[C@@H](CO)C(=O)N[C@H](C(=O)N[C@@H](CCC(=O)O)C(=O)N[C@H](C(=O)NCC(=O)N[C@@H](CO)C(=O)N[C@@H](CC(N)=O)C(=O)N[C@H](C(=O)N1C[C@H](O)C[C@H]1C(N)=O)[C@@H](C)O)C(C)C)[C@@H](C)O)N(C)C(=O)[C@H](C)NC(=O)CN(C)C(=O)[C@H](Cc1ccccc1)NC(=O)[C@H](CO)NC(=O)[C@H](CO)NC(=O)[C@H](CCCNC(=N)N)NC(=O)[C@H](CCC(N)=O)NC(=O)[C@H](CC(C)C)NC(=O)[C@H](Cc1ccccc1)NC(=O)[C@H](CCCC(=O)O)NC(=O)[C@H](C)NC(=O)[C@H](CC(C)C)NC(=O)[C@H](CCCNC(=N)N)NC(=O)[C@H](CCC(=O)O)NC(=O)[C@@H](NC(=O)[C@H](C)NC(=O)[C@H](CCCN)NC(=O)[C@@H](NC(=O)[C@H](C)NC(=O)[C@@H](NC(=O)CNC(=O)[C@H](CC(=O)O)NC(=O)[C@H](CCCNC(=N)N)NC(=O)CC[C@H](NC(=O)CCCCCCCCCCCCCCCCCCC(=O)O)C(=O)O)[C@@H](C)O)[C@@H](C)O)[C@@H](C)O) [Ref. 3]
0.032 nM,0.114 nM,{C20 diacid-γGlu}-RDGTAT[Orn]ATERLAHFLQRSSF[Sar]A[NMeI]PSSTEVGSNT[Hyp]-NH2 (lactam 2-7; SMILES CC[C@H](C)[C@@H](C(=O)N1CCC[C@H]1C(=O)N[C@@H](CO)C(=O)N[C@@H](CO)C(=O)N[C@H](C(=O)N[C@@H](CCC(=O)O)C(=O)N[C@H](C(=O)NCC(=O)N[C@@H](CO)C(=O)N[C@@H](CC(N)=O)C(=O)N[C@H](C(=O)N1C[C@H](O)C[C@H]1C(N)=O)[C@@H](C)O)C(C)C)[C@@H](C)O)N(C)C(=O)[C@H](C)NC(=O)CN(C)C(=O)[C@H](Cc1ccccc1)NC(=O)[C@H](CO)NC(=O)[C@H](CO)NC(=O)[C@H](CCCNC(=N)N)NC(=O)[C@H](CCC(N)=O)NC(=O)[C@H](CC(C)C)NC(=O)[C@H](Cc1ccccc1)NC(=O)[C@H](Cc1c[nH]cn1)NC(=O)[C@H](C)NC(=O)[C@H](CC(C)C)NC(=O)[C@H](CCCNC(=N)N)NC(=O)[C@H](CCC(=O)O)NC(=O)[C@@H](NC(=O)[C@H](C)NC(=O)[C@@H]1CCCNC(=O)C[C@H](NC(=O)[C@H](CCCNC(=N)N)NC(=O)CC[C@H](NC(=O)CCCCCCCCCCCCCCCCCCC(=O)O)C(=O)O)C(=O)NCC(=O)N[C@@H]([C@@H](C)O)C(=O)N[C@@H](C)C(=O)N[C@@H]([C@@H](C)O)C(=O)N1)[C@@H](C)O) [Compound 5]
1.5 nM,3.3 nM,{C20 diacid-γGlu}-R[Aad]GTAT[Dap]ATERLAHFLQRSSF[Sar]A[NMeI]LSSTEVGSNT[Hyp]-NH2 (lactam 2-7; SMILES CC[C@H](C)[C@@H](C(=O)N[C@@H](CC(C)C)C(=O)N[C@@H](CO)C(=O)N[C@@H](CO)C(=O)N[C@H](C(=O)N[C@@H](CCC(=O)O)C(=O)N[C@H](C(=O)NCC(=O)N[C@@H](CO)C(=O)N[C@@H](CC(N)=O)C(=O)N[C@H](C(=O)N1C[C@H](O)C[C@H]1C(N)=O)[C@@H](C)O)C(C)C)[C@@H](C)O)N(C)C(=O)[C@H](C)NC(=O)CN(C)C(=O)[C@H](Cc1ccccc1)NC(=O)[C@H](CO)NC(=O)[C@H](CO)NC(=O)[C@H](CCCNC(=N)N)NC(=O)[C@H](CCC(N)=O)NC(=O)[C@H](CC(C)C)NC(=O)[C@H](Cc1ccccc1)NC(=O)[C@H](Cc1c[nH]cn1)NC(=O)[C@H](C)NC(=O)[C@H](CC(C)C)NC(=O)[C@H](CCCNC(=N)N)NC(=O)[C@H](CCC(=O)O)NC(=O)[C@@H](NC(=O)[C@H](C)NC(=O)[C@@H]1CNC(=O)CCC[C@H](NC(=O)[C@H](CCCNC(=N)N)NC(=O)CC[C@H](NC(=O)CCCCCCCCCCCCCCCCCCC(=O)O)C(=O)O)C(=O)NCC(=O)N[C@@H]([C@@H](C)O)C(=O)N[C@@H](C)C(=O)N[C@@H]([C@@H](C)O)C(=O)N1)[C@@H](C)O) [Compound 50]
0.306 nM,0.861 nM,{C20 diacid-γGlu}-REGTAT[Dab]ATERLAHFLQRSSF[Sar]A[NMeI]LSSTEVGSNT[Hyp]-NH2 (lactam 2-7; SMILES CC[C@H](C)[C@@H](C(=O)N[C@@H](CC(C)C)C(=O)N[C@@H](CO)C(=O)N[C@@H](CO)C(=O)N[C@H](C(=O)N[C@@H](CCC(=O)O)C(=O)N[C@H](C(=O)NCC(=O)N[C@@H](CO)C(=O)N[C@@H](CC(N)=O)C(=O)N[C@H](C(=O)N1C[C@H](O)C[C@H]1C(N)=O)[C@@H](C)O)C(C)C)[C@@H](C)O)N(C)C(=O)[C@H](C)NC(=O)CN(C)C(=O)[C@H](Cc1ccccc1)NC(=O)[C@H](CO)NC(=O)[C@H](CO)NC(=O)[C@H](CCCNC(=N)N)NC(=O)[C@H](CCC(N)=O)NC(=O)[C@H](CC(C)C)NC(=O)[C@H](Cc1ccccc1)NC(=O)[C@H](Cc1c[nH]cn1)NC(=O)[C@H](C)NC(=O)[C@H](CC(C)C)NC(=O)[C@H](CCCNC(=N)N)NC(=O)[C@H](CCC(=O)O)NC(=O)[C@@H](NC(=O)[C@H](C)NC(=O)[C@@H]1CCNC(=O)CC[C@H](NC(=O)[C@H](CCCNC(=N)N)NC(=O)CC[C@H](NC(=O)CCCCCCCCCCCCCCCCCCC(=O)O)C(=O)O)C(=O)NCC(=O)N[C@@H]([C@@H](C)O)C(=O)N[C@@H](C)C(=O)N[C@@H]([C@@H](C)O)C(=O)N1)[C@@H](C)O) [Compound 51]
17.1 nM,20.3 nM,{C20 diacid-γGlu}-RDGTAT[Orn]ATERLAHFLQRSSF[Sar]A[NMeI]PSSTEVGSNT[Hyp]-NH2 (SMILES CC[C@H](C)[C@@H](C(=O)N1CCC[C@H]1C(=O)N[C@@H](CO)C(=O)N[C@@H](CO)C(=O)N[C@H](C(=O)N[C@@H](CCC(=O)O)C(=O)N[C@H](C(=O)NCC(=O)N[C@@H](CO)C(=O)N[C@@H](CC(N)=O)C(=O)N[C@H](C(=O)N1C[C@H](O)C[C@H]1C(N)=O)[C@@H](C)O)C(C)C)[C@@H](C)O)N(C)C(=O)[C@H](C)NC(=O)CN(C)C(=O)[C@H](Cc1ccccc1)NC(=O)[C@H](CO)NC(=O)[C@H](CO)NC(=O)[C@H](CCCNC(=N)N)NC(=O)[C@H](CCC(N)=O)NC(=O)[C@H](CC(C)C)NC(=O)[C@H](Cc1ccccc1)NC(=O)[C@H](Cc1c[nH]cn1)NC(=O)[C@H](C)NC(=O)[C@H](CC(C)C)NC(=O)[C@H](CCCNC(=N)N)NC(=O)[C@H](CCC(=O)O)NC(=O)[C@@H](NC(=O)[C@H](C)NC(=O)[C@H](CCCN)NC(=O)[C@@H](NC(=O)[C@H](C)NC(=O)[C@@H](NC(=O)CNC(=O)[C@H](CC(=O)O)NC(=O)[C@H](CCCNC(=N)N)NC(=O)CC[C@H](NC(=O)CCCCCCCCCCCCCCCCCCC(=O)O)C(=O)O)[C@@H](C)O)[C@@H](C)O)[C@@H](C)O) [Ref. 1]
